In patent US20220135655A1:

Target: H5VN04 recombinant trimeric hemagglutinin (HA) (influenza A virus H5VN04 (H5N1))

| Substance | fold reduction of binding against CR6261 | fold reduction of binding against F10 |
| --- | --- | --- |
| CR6261 Y98A scFv | > 4000 fold |  |
| CR6261 F54A scFv | 800 fold |  |
| F10 Y98A scFv |  | > 3000 fold |
